Target: recombinant human VISTA-Fc protein (R&D #7126-B7) (human) (UniProt Q9H7M9)
Assay: ELISA: plate coated with human VISTA-Fc, LRIG1.HIS titrated (x axis labelled 'Antibody Concentration (log M)')

Sequence of recombinant human VISTA-Fc protein (R&D #7126-B7) (human) (Q9H7M9 33-194 limits assumed): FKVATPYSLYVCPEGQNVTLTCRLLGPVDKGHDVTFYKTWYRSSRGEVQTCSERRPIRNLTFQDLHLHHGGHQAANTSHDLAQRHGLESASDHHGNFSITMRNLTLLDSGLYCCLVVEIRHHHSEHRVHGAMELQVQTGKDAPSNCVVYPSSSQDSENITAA

- EC50 (read off the curve): 9 nM
Substance: recombinant human LRIG1.HIS (from UniProt Q96JA1 35-794) (receptor)

Reference: patent publication US20260098093A1
